Like-named read-outs stand apart in the source and are kept apart here.
Key:
[1] = target: hBLyS-ECD (His-tagged extracellular domain of human BLyS protein, Ala134-Leu285) (human) (UniProt Q9Y275); experiment: cell-based or functional assay
[2] = target: extracellular domain of human BLyS protein (hBLyS-ECD), His-tagged, Ala134-Leu285 (human) (UniProt Q9Y275); experiment: cell-based or functional assay
[3] = target: biotinylated hBLyS-ECD (human) (UniProt Q9Y275); experiment: BAFF R-coated ELISA, biotinylated hBLyS-ECD bound in presence of control antibody 0.0064 nM
[4] = target: biotinylated hBLyS-ECD (human) (UniProt Q9Y275); experiment: ELISA on captured biotinylated hBLyS-ECD; control antibody 66.7 nM
[5] = target: biotinylated hBLyS-ECD (human) (UniProt Q9Y275); experiment: ELISA on captured biotinylated hBLyS-ECD; control antibody 0 nM (background)
[6] = target: biotinylated hBLyS-ECD (human) (UniProt Q9Y275); experiment: BAFF R-coated ELISA, biotinylated hBLyS-ECD bound in presence of control antibody 0.032 nM
[7] = target: biotinylated hBLyS-ECD (human) (UniProt Q9Y275); experiment: BAFF R-coated ELISA, biotinylated hBLyS-ECD bound in presence of control antibody 0.16 nM
[8] = target: biotinylated hBLyS-ECD (human) (UniProt Q9Y275); experiment: ELISA on captured biotinylated hBLyS-ECD; control antibody 0.00427 nM
[9] = target: biotinylated hBLyS-ECD (human) (UniProt Q9Y275); experiment: ELISA on captured biotinylated hBLyS-ECD; control antibody 66.7 nM; remark: listed apart in the source
[10] = target: biotinylated hBLyS-ECD (human) (UniProt Q9Y275); experiment: BAFF R-coated ELISA, biotinylated hBLyS-ECD bound in presence of control antibody 0 nM
[11] = target: biotinylated hBLyS-ECD (human) (UniProt Q9Y275); experiment: BAFF R-coated ELISA, biotinylated hBLyS-ECD bound in presence of control antibody 0.16 nM; remark: listed apart in the source
[12] = target: biotinylated hBLyS-ECD (human) (UniProt Q9Y275); experiment: ELISA on captured biotinylated hBLyS-ECD; control antibody 2.67 nM
[13] = target: biotinylated hBLyS-ECD (human) (UniProt Q9Y275); experiment: ELISA on captured biotinylated hBLyS-ECD; control antibody 0.0213 nM
[14] = target: biotinylated hBLyS-ECD (human) (UniProt Q9Y275); experiment: BAFF R-coated ELISA, biotinylated hBLyS-ECD bound in presence of control antibody 100 nM
[15] = target: biotinylated hBLyS-ECD (human) (UniProt Q9Y275); experiment: BAFF R-coated ELISA, biotinylated hBLyS-ECD bound in presence of control antibody 20 nM
[16] = target: biotinylated hBLyS-ECD (human) (UniProt Q9Y275); experiment: ELISA on captured biotinylated hBLyS-ECD; control antibody 0.0213 nM; remark: listed apart in the source
[17] = target: biotinylated hBLyS-ECD (human) (UniProt Q9Y275); experiment: BAFF R-coated ELISA, biotinylated hBLyS-ECD bound in presence of control antibody 0 nM; remark: listed apart in the source
[18] = target: biotinylated hBLyS-ECD (human) (UniProt Q9Y275); experiment: ELISA on captured biotinylated hBLyS-ECD; control antibody 0.534 nM
[19] = target: His-tagged extracellular domain of human BLyS protein (hBLyS-ECD), Ala134-Leu285 (human) (UniProt Q9Y275); experiment: cell-based or functional assay
[20] = target: extracellular domain of human BLyS protein (hBLyS-ECD), His-tagged, Ala134-Leu285 (human) (UniProt Q9Y275); experiment: cell-based or functional assay; remark: listed apart in the source
[21] = target: biotinylated hBLyS-ECD (human) (UniProt Q9Y275); experiment: ELISA on captured biotinylated hBLyS-ECD; control antibody 13.3 nM
[22] = target: biotinylated hBLyS-ECD (human) (UniProt Q9Y275); experiment: BAFF R-coated ELISA, biotinylated hBLyS-ECD bound in presence of control antibody 0.032 nM; remark: listed apart in the source
[23] = target: biotinylated hBLyS-ECD (human) (UniProt Q9Y275); experiment: ELISA on captured biotinylated hBLyS-ECD; control antibody 2.67 nM; remark: listed apart in the source
[24] = target: biotinylated hBLyS-ECD (human) (UniProt Q9Y275); experiment: BAFF R-coated ELISA, biotinylated hBLyS-ECD bound in presence of control antibody 100 nM; remark: listed apart in the source
[25] = target: biotinylated hBLyS-ECD (human) (UniProt Q9Y275); experiment: BAFF R-coated ELISA, biotinylated hBLyS-ECD bound in presence of control antibody 0.8 nM
[26] = target: biotinylated hBLyS-ECD (human) (UniProt Q9Y275); experiment: ELISA on captured biotinylated hBLyS-ECD; control antibody 0.534 nM; remark: listed apart in the source
[27] = target: T1, extracellular domain of human BLyS protein (hBLyS-ECD), His-tagged, Ala134-Leu285 (human, UniProt Q9Y275 134-285); experiment: cell-based or functional assay
[28] = target: T1, extracellular domain of human BLyS …; experiment: cell-based or functional assay; remark: listed apart in the source

biotinylated hBLyS-ECD (human), sequence (Q9Y275 134-285): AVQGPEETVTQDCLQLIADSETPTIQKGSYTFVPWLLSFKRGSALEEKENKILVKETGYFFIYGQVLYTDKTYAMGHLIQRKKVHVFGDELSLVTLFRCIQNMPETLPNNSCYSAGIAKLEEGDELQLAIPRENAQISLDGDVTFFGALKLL
extracellular domain of human BLyS protein (hBLyS-ECD), His-tagged, Ala134-Leu285 (human), sequence (Q9Y275 134-285): as above
hBLyS-ECD (His-tagged extracellular domain of human BLyS protein, Ala134-Leu285) (human), sequence (Q9Y275 134-285): as above
T1 sequence (Q9Y275 134-285): as above

Molecule: mIgG Control (antibody)
- mouse B lymphocyte proliferation (OD450 nm), antibody 0 nM [1]: 2730 OD450 nm
- mouse B lymphocyte proliferation (OD450 nm), antibody 0.000256 nM [1]: 3130 OD450 nm
- mouse B lymphocyte proliferation (OD450 nm), antibody 0.00128 nM [1]: 3880 OD450 nm
- mouse B lymphocyte proliferation (OD450 nm), antibody 0.0064 nM [1]: 3700 OD450 nm
- mouse B lymphocyte proliferation (OD450 nm), antibody 0.032 nM [1]: 4010 OD450 nm
- mouse B lymphocyte proliferation (OD450 nm), antibody 0.16 nM [1]: 4020 OD450 nm
- mouse B lymphocyte proliferation (OD450 nm), antibody 0.8 nM [1]: 3950 OD450 nm
- mouse B lymphocyte proliferation (OD450 nm), antibody 4 nM [1]: 3100 OD450 nm
- mouse B lymphocyte proliferation (OD450 nm), antibody 20 nM [1]: 2590 OD450 nm
- mouse B lymphocyte proliferation (OD450 nm), antibody 100 nM [1]: 3400 OD450 nm

Molecule: hIgG Control (antibody)
- Proportion of B lymphocytes in splenocytes (%), in vivo in mice [2]: 38.3%
- OD450 nm [3]: 1.99 OD450 nm
- OD450 nm [4]: 0.14 OD450 nm
- OD450 nm [5]: 0.119 OD450 nm
- OD450 nm [6]: 1.84 OD450 nm
- OD450 nm [7]: 2.04 OD450 nm
- OD450 nm [8]: 0.121 OD450 nm
- OD450 nm [9]: 0.144 OD450 nm
- OD450 nm [10]: 2 OD450 nm
- OD450 nm [11]: 1.79 OD450 nm
- OD450 nm [12]: 0.0652 OD450 nm
- OD450 nm [13]: 0.0699 OD450 nm
- OD450 nm [14]: 2.2 OD450 nm
- OD450 nm [15]: 2.01 OD450 nm
- OD450 nm [16]: 0.0887 OD450 nm
- OD450 nm [17]: 2.37 OD450 nm
- OD450 nm [18]: 0.062 OD450 nm
- IgA Conc. in mouse serum, mice given hBLyS-ECD and antibody (in vivo neutralisation) [19]: 387 µg/mL
- Proportion of B lymphocytes in splenocytes (%), mice given hBLyS-ECD and antibody (in vivo neutralisation) [19]: 39.7%
- mouse B lymphocyte proliferation stimulated by hBLyS-ECD (viable cell signal) at 0 nM antibody (OD450 nm (as headed)) [19]: 3570
- mouse B lymphocyte proliferation stimulated by hBLyS-ECD (viable cell signal) at 0.000256 nM antibody [19]: 3970
- mouse B lymphocyte proliferation stimulated by hBLyS-ECD (viable cell signal) at 0.00128 nM antibody (OD450 nm (as headed)) [19]: 3860
- mouse B lymphocyte proliferation stimulated by hBLyS-ECD (viable cell signal) at 0.0064 nM antibody (OD450 nm (as headed)) [19]: 3730
- mouse B lymphocyte proliferation stimulated by hBLyS-ECD (viable cell signal) at 0.032 nM antibody (OD450 nm (as headed)) [19]: 3920
- mouse B lymphocyte proliferation stimulated by hBLyS-ECD (viable cell signal) at 0.16 nM antibody (OD450 nm (as headed)) [19]: 4200
- mouse B lymphocyte proliferation stimulated by hBLyS-ECD (viable cell signal) at 0.8 nM antibody (OD450 nm (as headed)) [19]: 4290
- mouse B lymphocyte proliferation stimulated by hBLyS-ECD (viable cell signal) at 4 nM antibody (OD450 nm (as headed)) [19]: 4430
- mouse B lymphocyte proliferation stimulated by hBLyS-ECD (viable cell signal) at 20 nM antibody (OD450 nm (as headed)) [19]: 4700
- mouse B lymphocyte proliferation stimulated by hBLyS-ECD (viable cell signal) at 100 nM antibody (OD450 nm (as headed)) [19]: 3720
- OD450 nm (as headed), mouse B lymphocyte proliferation; control antibody 0 nM [20]: 4390
- OD450 nm (as headed), mouse B lymphocyte proliferation; control antibody 0.000256 nM [20]: 4940
- OD450 nm (as headed), mouse B lymphocyte proliferation; control antibody 0.00128 nM [20]: 4690
- OD450 nm (as headed), mouse B lymphocyte proliferation; control antibody 0.0064 nM [20]: 5070
- OD450 nm (as headed), mouse B lymphocyte proliferation; control antibody 0.032 nM [20]: 5120
- OD450 nm (as headed), mouse B lymphocyte proliferation; control antibody 0.16 nM [20]: 5370
- OD450 nm (as headed), mouse B lymphocyte proliferation; control antibody 0.8 nM [20]: 5040
- OD450 nm (as headed), mouse B lymphocyte proliferation; control antibody 4 nM [20]: 5100
- OD450 nm (as headed), mouse B lymphocyte proliferation; control antibody 20 nM [20]: 4930
- OD450 nm (as headed), mouse B lymphocyte proliferation; control antibody 100 nM [20]: 4880
- Proportion of B lymphocytes in splenocytes (%), in vivo in mice [20]: 51%
- OD450 nm [21]: 0.072 OD450 nm
- OD450 nm [22]: 1.99 OD450 nm
- OD450 nm [23]: 0.237 OD450 nm
- OD450 nm [24]: 1.87 OD450 nm
- OD450 nm [25]: 1.83 OD450 nm
- OD450 nm [26]: 0.141 OD450 nm

B1: c97A3C2H4 (antibody, V domains shown)
VH: EVKLVESGGGLVQPGGSLKLSCAASGFTFSTYTMSWVRQTPEKRLEWVAYISYGGGSTSYPDTVKGRFTISRDNAKNTLYLQMSSLKSEDTAIYYCTRHVTVVENSMDYWGQGTSVTVSS
VL: DILLTQSPDILSVSPGERVSFSCRASQSIGTSIHWYQQRTNGSPRLLIKYVSESFSGTPSRFSGSGSGTAFTLTINSVESEDIADYYCQQTHSWPWTFGGGTKLEIK
notes: also called chimeric antibody c97A3C2H4
- Proportion of B lymphocytes in splenocytes (%), in vivo in mice [27]: 24.1%
- Proportion of B lymphocytes in splenocytes (%), in vivo in mice [28]: 28.2%
